Source: publication PMC7498065, “Isolation of antigen-specific, disulphide-rich knob domain peptides from bovine antibodies” (PLoS Biology, 2020)
Read-outs that look alike come from different tables or passages of the source.

B1: PGT121-K136: human Fab PGT121 with the K136 knob domain inserted into CDRH3, flanked by TEV protease sites (antibody)
VH: QMQLQESGPGLVKPSETLSLTCSVSGASISDSYWSWIRRSPGKGLEWIGYVHKSGDTNYSPSLKSRVNLSLDTSKNQVSLSLVAATAADSGKYYCARTLHGRRIYGSENLYFQGTCPDNYREVDGCDPYDCCLTTWCTNSYCTRYIENLYFQGSEWFTYFYMDVWGNGTQVTVSS
VL: QSVLTQPPDISVAPGETARISCGEKSLGSRAVQWYQHRAGQAPSLIIYNNQDRPSGIPERFSGSPDSPFGTTATLTITSVEAGDEADYYCHIWDSRVPTKWVFGGGTTLTVL
B2: PGT121-K149: human Fab PGT121 with the K149 knob domain inserted into CDRH3, flanked by TEV protease sites (antibody)
VH: QMQLQESGPGLVKPSETLSLTCSVSGASISDSYWSWIRRSPGKGLEWIGYVHKSGDTNYSPSLKSRVNLSLDTSKNQVSLSLVAATAADSGKYYCARTLHGRRIYGSENLYFQGSCPDGFSYRSWDDFCCPMVGRCLAPRNGSENLYFQGSEWFTYFYMDVWGNGTQVTVSS
VL: B1 VL

Columns and labels:
[1] = molecular target: Complement component C5 (Homo sapiens, UniProt P01031); test: Biacore SPR single-cycle kinetics of PGT121 Fab-knob domain fusion proteins binding to C5; settings: for Mean kon: C5 amine-coupled on CM5 chip, analyte 1.37 nM-1 µM in HBS-EP; for Mean Stoichiometric ratio at 1 µM: SPR, analyte 1 µM
Complement component C5, sequence (P01031 19-673 limits assumed): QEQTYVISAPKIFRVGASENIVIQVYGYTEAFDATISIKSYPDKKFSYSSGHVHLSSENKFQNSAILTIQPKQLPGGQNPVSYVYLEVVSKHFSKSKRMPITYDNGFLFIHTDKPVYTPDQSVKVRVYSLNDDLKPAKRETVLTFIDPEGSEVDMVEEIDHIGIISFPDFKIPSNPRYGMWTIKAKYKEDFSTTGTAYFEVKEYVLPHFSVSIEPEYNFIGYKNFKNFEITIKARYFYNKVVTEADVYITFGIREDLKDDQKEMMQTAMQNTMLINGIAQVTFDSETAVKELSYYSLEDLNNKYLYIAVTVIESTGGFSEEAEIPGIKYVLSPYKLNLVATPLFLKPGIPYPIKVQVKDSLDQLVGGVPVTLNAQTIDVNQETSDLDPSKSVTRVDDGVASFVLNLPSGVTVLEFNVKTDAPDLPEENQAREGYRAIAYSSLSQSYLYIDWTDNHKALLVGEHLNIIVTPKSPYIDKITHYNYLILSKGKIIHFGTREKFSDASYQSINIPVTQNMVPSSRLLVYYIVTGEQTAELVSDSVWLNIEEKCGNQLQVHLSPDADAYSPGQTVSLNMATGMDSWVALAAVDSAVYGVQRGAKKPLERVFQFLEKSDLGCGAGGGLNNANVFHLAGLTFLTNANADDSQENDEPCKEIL
Complement component C5, sequence (P01031 678-1676 limits assumed): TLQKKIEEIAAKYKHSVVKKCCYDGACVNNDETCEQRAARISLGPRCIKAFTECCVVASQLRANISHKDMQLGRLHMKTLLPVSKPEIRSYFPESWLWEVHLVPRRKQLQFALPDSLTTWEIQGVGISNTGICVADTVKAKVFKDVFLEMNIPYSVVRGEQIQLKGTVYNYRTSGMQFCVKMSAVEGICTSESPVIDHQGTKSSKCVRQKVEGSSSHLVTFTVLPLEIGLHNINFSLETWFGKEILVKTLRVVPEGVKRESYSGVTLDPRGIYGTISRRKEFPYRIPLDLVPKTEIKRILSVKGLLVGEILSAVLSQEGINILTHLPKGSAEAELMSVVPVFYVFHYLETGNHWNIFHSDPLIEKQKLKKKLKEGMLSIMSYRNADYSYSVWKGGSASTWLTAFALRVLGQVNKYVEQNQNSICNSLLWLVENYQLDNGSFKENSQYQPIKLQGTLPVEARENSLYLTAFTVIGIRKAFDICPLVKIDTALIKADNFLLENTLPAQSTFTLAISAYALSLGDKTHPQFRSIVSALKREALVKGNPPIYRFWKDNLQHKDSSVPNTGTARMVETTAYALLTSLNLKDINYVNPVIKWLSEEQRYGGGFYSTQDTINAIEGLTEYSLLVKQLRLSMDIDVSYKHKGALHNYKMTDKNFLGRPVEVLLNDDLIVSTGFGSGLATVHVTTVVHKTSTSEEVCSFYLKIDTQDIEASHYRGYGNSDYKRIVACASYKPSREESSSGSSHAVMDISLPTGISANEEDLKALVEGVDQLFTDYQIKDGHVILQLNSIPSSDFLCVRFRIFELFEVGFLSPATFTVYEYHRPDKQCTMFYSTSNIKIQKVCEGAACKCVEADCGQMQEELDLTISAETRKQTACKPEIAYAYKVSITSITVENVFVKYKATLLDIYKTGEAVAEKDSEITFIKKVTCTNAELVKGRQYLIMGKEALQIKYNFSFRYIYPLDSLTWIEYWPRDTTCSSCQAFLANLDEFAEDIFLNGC
Description: For PGT121 fusion proteins, flow cells were activated using a minimal immobilisation protocol: EDC/NHS was mixed at 1:2 ratio (flow rate, 10 μL/min; contact time, 30 s). C5, at 1 μg/mL in pH 4.5 sodium-acetate buffer, was immobilized on flow cell 2 only (flow rate, 10 μL/min; contact time, 420 s). Finally, ethanolamine was applied to both flow cells (flow rate, 10 μL/min; contact time, 420 s).
For knob domain peptides, flow cells were activated using a standard immobilisation protocol: EDC/NHS was mixed at 1:1 ratio (flow rate, 10 μL/min; contact time, 30 s). C5, at 1 μg/mL in pH 4.5 sodium-acetate buffer, was immobilized on flow cell 2 only (flow rate, 10 μL/min; contact time, 420 s). Finally, ethanolamine was applied to both flow cells (flow rate, 10 μL/min; contact time, 420 s). […] For the PGT121-K149 fusion protein and K149 knob domain, the same immobilisation protocols were used but with a 750 ng/mL solution of C5, instead of 1 μg/mL.
One-micromolar stock solutions of the analytes (PGT121 knob domain fusion proteins and free knob domain peptides) were prepared in HBS-EP buffer. A series of six 3-fold dilutions of each stock solution was prepared in the same buffer. The result was 7 solutions for each analyte, at concentrations ranging from 1 μM down to 1.37 nM. A high flow rate of 40 μL/min was used, with a contact time of 230 s and a dissociation time of 1,800 s for knob domain peptides and 10,000 s for PGT121 knob domain fusion proteins. For the PGT121-K149 fusion protein and K149 knob domain, the flow rate was further increased to 100 μL/min. Binding to the reference surface was subtracted, and the data were fitted to a single-site binding model using Biacore evaluation software. Data were inspected for evidence of mass transport limitation using the flow-rate–independent component of the mass transfer constant (tc).

[2] = molecular target: C5 (Homo sapiens, UniProt P01031); test: Steady state FRET binding assay, AF647-labelled PGT121 knob fusion proteins binding to C5-Tb (KD app); settings: C5-Tb 1 nM
C5, sequence (P01031 19-673 limits assumed): as the sequence (P01031 19-673 limits assumed) above
C5, sequence (P01031 678-1676 limits assumed): as the sequence (P01031 678-1676 limits assumed) above

[3] = 2 hour incubation, experiment n2, read-out: KD app
[4] = 2 hour incubation, experiment n3, read-out: KD app
[5] = 2 hour incubation, geomean of n=3, read-out: Geomean KD app
[6] = 24 hour incubation, experiment n2, read-out: KD app
[7] = 24 hour incubation, experiment n3, read-out: KD app
[8] = 24 hour incubation, geomean of n=3, read-out: Geomean KD app

Molecule | Mean kon ([1]; 1:1 model, mean of n=3) [M⁻¹ s⁻¹] | Mean Stoichiometric ratio at 1 µM ([1]; mean of n=3) | Rmax ([1]; occasion n=1) [RU] | Stoichiometric ratio at 1 µM ([1]; occasion n=1) | kon ([1]; occasion n=1) [M⁻¹ s⁻¹] | Kd ([1]; occasion n=1, read-out: KD) [nM] | Rmax ([1]; occasion n=2) [RU] | Stoichiometric ratio at 1 µM ([1]; occasion n=2) | kon ([1]; occasion n=2) [M⁻¹ s⁻¹] | Kd ([1]; occasion n=2, read-out: KD) [nM] | Rmax ([1]; occasion n=3) [RU] | Stoichiometric ratio at 1 µM ([1]; occasion n=3) | kon ([1]; occasion n=3) [M⁻¹ s⁻¹] | Kd ([1]; occasion n=3, read-out: KD) [nM] | Kd [2, 3] [nM] | Kd [2, 4] [nM] | Kd [2, 5] [nM] | Kd [2, 6] [nM] | Kd [2, 7] [nM] | Kd [2, 8] [nM] | other results
B1 | 4760 | 0.8 | 38.9 | 0.82 | 5480 | < 1.82 | 38.4 | 0.8 | 3520 | < 2.84 | 40.4 | 0.9 | 5280 | < 1.89 | 46.3 | 115 | 73 | 23.4 | 58.1 | 39.8 | Kd ([1]; SPR single-cycle kinetics, 1:1 model, mean of n=3, read-out: Mean KD): < 2.19 nM; off rate (koff) ([1]; exceeded the limit for koff determination by Biacore): < 1e-05 s⁻¹
B2 | 3750 | 0.5 | 13.00 | 0.5 | 5270 | 283 | 10.00 | 0.5 | 3840 | 425 | 10.00 | 0.4 | 2150 | 842 | 57.6 | 30.1 | 39.3 | 90.6 | 24.9 | 65.9 | Mean koff ([1]; SPR single-cycle kinetics, 1:1 model, mean of n=3, koff capped at 1.00E-05 s^-1): 0.00164 s⁻¹; koff ([1]; occasion n=1): 0.00149 s⁻¹; koff ([1]; occasion n=2): 0.00162 s⁻¹; koff ([1]; occasion n=3): 0.00181 s⁻¹; Kd ([2]; 2 hour incubation, experiment n1, read-out: KD app): 34.9 nM; Kd ([2]; 24 hour incubation, experiment n1, read-out: KD app): 127 nM
